How the values were obtained:
Format in all cases: cell-based
[1] = molecular target: T1, α4β7 (Homo sapiens, UniProt P13612+P26010); assay: α4β7 adhesion assay: RPMI8866 cell adhesion to zz-MAdCAM; details: SVVYGLR peptide with the residue mutated to alanine
T1 construct: RPMI8866 cells which express α4β7, and small amounts of α4β1 and α5β1 were used; endogenous in cells; host or cells: RPMI8866 cells
T1 sequence (P13612 34-1032): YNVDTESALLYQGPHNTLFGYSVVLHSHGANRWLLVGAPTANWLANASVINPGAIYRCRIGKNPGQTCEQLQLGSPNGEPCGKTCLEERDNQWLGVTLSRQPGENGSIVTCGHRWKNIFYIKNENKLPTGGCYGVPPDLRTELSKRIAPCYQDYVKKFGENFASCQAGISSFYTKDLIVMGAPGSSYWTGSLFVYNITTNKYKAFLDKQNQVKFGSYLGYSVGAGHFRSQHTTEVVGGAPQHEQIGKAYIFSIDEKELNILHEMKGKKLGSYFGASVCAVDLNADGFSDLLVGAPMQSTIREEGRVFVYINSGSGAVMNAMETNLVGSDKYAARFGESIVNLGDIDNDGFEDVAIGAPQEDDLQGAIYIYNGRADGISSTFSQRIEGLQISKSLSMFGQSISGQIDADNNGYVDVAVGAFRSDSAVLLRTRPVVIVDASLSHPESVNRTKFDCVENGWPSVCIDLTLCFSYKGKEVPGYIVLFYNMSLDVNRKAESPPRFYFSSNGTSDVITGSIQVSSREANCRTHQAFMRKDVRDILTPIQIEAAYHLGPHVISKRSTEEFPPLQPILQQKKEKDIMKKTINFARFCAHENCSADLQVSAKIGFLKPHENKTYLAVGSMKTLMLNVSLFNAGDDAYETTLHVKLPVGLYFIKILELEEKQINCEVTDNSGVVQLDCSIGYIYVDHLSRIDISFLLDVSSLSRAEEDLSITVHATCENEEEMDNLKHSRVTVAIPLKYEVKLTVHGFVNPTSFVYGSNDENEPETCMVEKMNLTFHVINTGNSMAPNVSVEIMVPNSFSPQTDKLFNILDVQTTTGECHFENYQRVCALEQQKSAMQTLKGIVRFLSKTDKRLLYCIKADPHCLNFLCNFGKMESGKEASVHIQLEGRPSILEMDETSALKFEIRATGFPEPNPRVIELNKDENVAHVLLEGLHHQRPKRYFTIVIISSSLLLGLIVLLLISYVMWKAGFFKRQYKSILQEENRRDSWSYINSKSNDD
T1 sequence (P26010 20-798): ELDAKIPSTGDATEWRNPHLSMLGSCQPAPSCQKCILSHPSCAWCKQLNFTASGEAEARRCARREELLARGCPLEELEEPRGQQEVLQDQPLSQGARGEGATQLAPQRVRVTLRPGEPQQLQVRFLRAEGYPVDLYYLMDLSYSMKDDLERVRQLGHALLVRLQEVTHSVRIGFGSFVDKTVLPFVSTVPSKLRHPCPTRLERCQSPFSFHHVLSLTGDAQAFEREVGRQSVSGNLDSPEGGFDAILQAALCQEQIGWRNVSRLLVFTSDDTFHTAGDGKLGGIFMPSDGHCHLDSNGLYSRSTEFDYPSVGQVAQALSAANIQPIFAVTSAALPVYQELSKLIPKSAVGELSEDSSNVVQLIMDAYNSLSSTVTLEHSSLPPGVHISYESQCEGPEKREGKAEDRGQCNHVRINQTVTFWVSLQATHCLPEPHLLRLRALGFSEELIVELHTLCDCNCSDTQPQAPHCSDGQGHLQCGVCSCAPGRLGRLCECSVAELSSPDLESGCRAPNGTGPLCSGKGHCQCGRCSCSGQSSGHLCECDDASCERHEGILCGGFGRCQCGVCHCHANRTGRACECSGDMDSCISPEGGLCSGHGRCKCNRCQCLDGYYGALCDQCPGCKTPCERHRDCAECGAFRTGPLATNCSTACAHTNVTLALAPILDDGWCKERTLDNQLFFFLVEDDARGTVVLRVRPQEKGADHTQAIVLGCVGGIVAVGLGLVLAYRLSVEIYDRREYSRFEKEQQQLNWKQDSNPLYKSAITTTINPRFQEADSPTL
Description: The recombinant zz-MAdCAM was absorbed onto Maxisorp plate pre-coated for 2.5 hours at 37° C. with 100 μL of human IgG, and then washed twice with PBS. For capture the recombinant zz-MAdCAM was diluted to the appropriate concentration in 3% BSA/PBS, 100 μl added to each well, and incubated overnight at 4° C. Prior to use plates were washed twice in PBS.
For the α4β7 adhesion assay RPMI8866 cells were washed in cation free HBSS supplemented with 1 mM EDTA, pelleted and labelled by incubating with BCECF (Molecular Probes) in cation-free HBSS at 37° C. for 10 minutes. At this stage cells were also co-incubated with […] human IgG to block endogenous Fc receptors. Cells were then washed once more in cation-free HBSS and then used in the adhesion assay at a final concentration of 3×10^6 cells ml^−1 in the presence of the appropriate treatment as indicated. To prevent cells clumping the assay plate was finally centrifuged at 400 rpm for 3 minutes without the brake. Cells were then incubated for 20 minutes at 37° C. and then washed twice in PBS before reading directly in a plate reader. For antibody inhibition studies the cells were preincubated with the appropriate antibody at […] for 5 minutes at room temperature prior to being placed in the incubator.

[2] = molecular target: T2, α4β1 (Homo sapiens, UniProt P05556+P13612); assay: J6 cell adhesion to GST-CS-1 (CS-1 fragment of fibronectin); details: SVVYGLR peptide with the residue mutated to alanine
T2 construct: Of the integrins analysed J6 express only α5β1 and α4βwhile HL60 express α4β1 and α5β1 and αLβ2; endogenous in cells; host or cells: J6 cells
Description: (§1) All proteins were coated onto MAXISORP plates (Nunc) overnight at 4° C. Each protein was diluted in PBS at the concentrations indicated, and a total volume of 100 μl added per well. Plates were washed twice in PBS then blocked with 3% BSA/PBS for 1 hr at 37° C., and finally washed twice in PBS. Routinely HL60 cells were pelleted and washed once in HBSS (Sigma) then spread in 25 mM Hepes 7.5, HBSS at 2×10^6 ml^−1 (100 μl per well) in the presence of 0.2 mM MnCl2 and 50 ng/ml TPA, with other additions as indicated. J6 cells were likewise pelleted and washed once in HBSS (Sigma) then spread in 25 mM Hepes (pH7.5), HBSS at 2×10^6ml^−1 (100 μl per well) in the presence of 0.2 mM MnCl2 and other additions as indicated. For antibody inhibition cells were preincubated with the antibody (10 μg/ml) on ice for 10 minutes. Cells were then allowed to attach for 35 minutes at 37° C., washed twice in PBS, once in ethanol, and fixed in ethanol for 20 minutes at room temperature. For quantitation cells were visualised by staining with 0.1% crystal violet (Sigma) for 10 minutes then lysed in 0.5% TRITON X-100 (Sigma) and read at 570 nm in a Wallac Victor plate reader.

[3] = test system: α4β1; assay: as above; details: J6/CS-1 versus RPMI8866/zz-MAdCAM
Description: as §1

T2 sequence (P05556 21-798, one chain of several): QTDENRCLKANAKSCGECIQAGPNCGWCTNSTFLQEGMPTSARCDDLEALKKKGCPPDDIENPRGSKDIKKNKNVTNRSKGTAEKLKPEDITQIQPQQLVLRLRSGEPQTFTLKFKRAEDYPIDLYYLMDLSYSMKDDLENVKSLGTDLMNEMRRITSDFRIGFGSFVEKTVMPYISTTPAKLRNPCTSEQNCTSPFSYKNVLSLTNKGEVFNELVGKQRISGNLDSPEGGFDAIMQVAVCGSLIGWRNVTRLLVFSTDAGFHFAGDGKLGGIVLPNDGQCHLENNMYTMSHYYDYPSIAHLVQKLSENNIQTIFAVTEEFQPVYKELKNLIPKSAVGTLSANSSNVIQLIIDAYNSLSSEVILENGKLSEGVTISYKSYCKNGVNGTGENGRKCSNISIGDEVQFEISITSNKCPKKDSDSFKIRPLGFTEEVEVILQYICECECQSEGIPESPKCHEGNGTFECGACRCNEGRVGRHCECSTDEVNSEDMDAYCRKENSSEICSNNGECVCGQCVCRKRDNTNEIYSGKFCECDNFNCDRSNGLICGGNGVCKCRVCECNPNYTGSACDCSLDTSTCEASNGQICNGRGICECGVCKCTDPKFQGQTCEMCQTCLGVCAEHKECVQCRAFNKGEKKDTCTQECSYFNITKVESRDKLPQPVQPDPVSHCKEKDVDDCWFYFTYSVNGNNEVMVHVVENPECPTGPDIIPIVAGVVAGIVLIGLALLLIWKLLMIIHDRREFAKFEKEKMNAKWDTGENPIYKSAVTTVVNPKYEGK

Arg168: SVVYGLR synthetic peptide in which Arg168 is mutated to alanine (SVVYGLA; SVVYGLR peptide; UniProt P10451 162-168, looked up, variant R168A)
Relative potency compared to parent peptide SVVYGLR against α4β7 (RPMI8866 adhesion to zz-MAdCAM) [1]: less potent
Relative potency compared to parent peptide SVVYGLR against α4β1 (J6 adhesion to GST-CS-1) [2]: more potent
Selectivity between α4β1 and α4β7 on mutating the residue [3]: introduces a degree of selectivity

— patent US7662633B2, “Method of screening for inhibitors of osteopontin” (GlaxoSmithKline LLC, priority 2000, dated 2010)
